The results in this text go back to paper PMC4963926 (Journal of Translational Medicine, 2016).

This data set deals with the molecule itself. Description: SDS-PAGE and immunoblotting of the purified protein.

B1: HPV11 His6-E6 protein (natural protein)
chain: MESKDASTSATSIDQLCKTFNLSLHTLQIQCVFCRNALTTAEIYAYAYKNLKVVWRDNFPFAACACCLELQGKINQYRHFNYAAYAPTVEEETNEDILKVLIRCYLCHKPLCEIEKLKHILGKARFIKLNNQWKGRCLHCWTTCMEDLLP
On to B1, for which the binding result is reported as “binds”.

B2: HPV16 His6-E6 protein (natural protein)
chain: MHQKRTAMFQDPQERPRKLPQLCTELQTTIHDIILECVYCKQQLLRREVYDFAFRDLCIVYRDGNPYAVCDKCLKFYSKISEYRHYCYSLYGTTLEQQYNKPLCDLLIRCINCQKPLCPEEKQRHLDKKQRFHNIRGRWTGRCMSCCRSSRTRRETQL
notes: also called HR-HPV16 His6-E6; HPV16 E6
For the protein B2, the binding result is “binds”.
